# Laboratory results as given in publication PMC7104376 (Nature structural & molecular biology, 2020).
# T1: C160, subunit of S. cerevisiae RNA polymerase III (S. cerevisiae, UniProt P04051 1-1460)
# T1 sequence: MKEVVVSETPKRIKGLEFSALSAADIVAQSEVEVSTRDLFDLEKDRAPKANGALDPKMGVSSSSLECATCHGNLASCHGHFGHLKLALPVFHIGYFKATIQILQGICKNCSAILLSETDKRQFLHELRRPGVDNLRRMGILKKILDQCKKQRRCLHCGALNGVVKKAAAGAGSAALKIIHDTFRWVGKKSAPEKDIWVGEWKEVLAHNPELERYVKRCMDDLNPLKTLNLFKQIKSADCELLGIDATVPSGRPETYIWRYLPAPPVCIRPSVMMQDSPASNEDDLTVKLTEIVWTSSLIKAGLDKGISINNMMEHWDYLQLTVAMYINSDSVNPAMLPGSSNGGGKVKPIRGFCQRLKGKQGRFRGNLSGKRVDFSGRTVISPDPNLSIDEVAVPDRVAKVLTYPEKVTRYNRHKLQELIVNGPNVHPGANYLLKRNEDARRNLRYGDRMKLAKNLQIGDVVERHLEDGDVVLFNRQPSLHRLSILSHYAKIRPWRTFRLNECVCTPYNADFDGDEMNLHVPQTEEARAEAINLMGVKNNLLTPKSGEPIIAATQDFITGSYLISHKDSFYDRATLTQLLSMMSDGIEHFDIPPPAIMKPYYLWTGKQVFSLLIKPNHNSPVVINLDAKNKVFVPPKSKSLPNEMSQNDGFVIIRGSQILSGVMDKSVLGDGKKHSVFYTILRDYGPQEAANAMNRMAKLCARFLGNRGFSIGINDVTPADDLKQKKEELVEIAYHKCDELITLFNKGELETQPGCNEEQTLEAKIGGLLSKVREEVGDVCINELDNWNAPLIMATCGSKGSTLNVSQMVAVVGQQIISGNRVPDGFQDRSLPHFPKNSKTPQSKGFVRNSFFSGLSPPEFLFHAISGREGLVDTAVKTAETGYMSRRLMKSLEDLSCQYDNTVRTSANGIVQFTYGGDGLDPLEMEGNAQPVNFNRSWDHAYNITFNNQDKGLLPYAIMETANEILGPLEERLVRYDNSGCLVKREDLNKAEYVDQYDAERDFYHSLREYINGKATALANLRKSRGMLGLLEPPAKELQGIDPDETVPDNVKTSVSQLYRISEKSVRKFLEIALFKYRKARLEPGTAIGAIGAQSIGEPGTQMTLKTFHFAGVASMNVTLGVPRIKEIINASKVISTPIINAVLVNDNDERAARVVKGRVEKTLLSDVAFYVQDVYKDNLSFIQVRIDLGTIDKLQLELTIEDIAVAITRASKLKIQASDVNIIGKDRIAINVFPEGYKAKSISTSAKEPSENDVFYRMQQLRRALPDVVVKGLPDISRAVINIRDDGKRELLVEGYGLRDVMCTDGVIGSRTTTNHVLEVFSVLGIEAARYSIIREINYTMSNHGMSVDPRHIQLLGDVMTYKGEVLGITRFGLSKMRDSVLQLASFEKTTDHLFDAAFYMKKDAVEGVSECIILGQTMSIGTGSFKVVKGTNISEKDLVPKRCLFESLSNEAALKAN
# T2: C34, subunit of S. cerevisiae RNA polymerase III (S. cerevisiae, UniProt P32910 1-317)
# T2 sequence: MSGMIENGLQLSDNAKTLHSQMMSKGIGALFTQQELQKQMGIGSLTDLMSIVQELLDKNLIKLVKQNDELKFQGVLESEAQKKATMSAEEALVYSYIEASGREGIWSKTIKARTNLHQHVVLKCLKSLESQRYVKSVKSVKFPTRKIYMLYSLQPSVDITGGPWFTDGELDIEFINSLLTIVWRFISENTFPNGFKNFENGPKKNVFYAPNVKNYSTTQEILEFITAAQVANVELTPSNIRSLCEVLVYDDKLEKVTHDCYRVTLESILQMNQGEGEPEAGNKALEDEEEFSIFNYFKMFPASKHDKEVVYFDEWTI
# T3: Maf1-id L318S/W319S (S. cerevisiae, UniProt P41910 1-395, Δ64-194 | L318S | W319S)
# T3 sequence (looked up): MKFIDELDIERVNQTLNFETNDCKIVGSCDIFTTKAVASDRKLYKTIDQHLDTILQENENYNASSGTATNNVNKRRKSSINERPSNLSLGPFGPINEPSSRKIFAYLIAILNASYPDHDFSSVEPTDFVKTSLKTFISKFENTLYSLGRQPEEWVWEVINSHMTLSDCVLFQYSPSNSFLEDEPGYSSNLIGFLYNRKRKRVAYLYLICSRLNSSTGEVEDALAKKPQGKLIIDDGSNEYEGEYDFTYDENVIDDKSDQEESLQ
# T4: Maf1-id T33E/T34E (S. cerevisiae, UniProt P41910 1-395, Δ64-194 | T33E | T34E)
# T4 sequence (looked up): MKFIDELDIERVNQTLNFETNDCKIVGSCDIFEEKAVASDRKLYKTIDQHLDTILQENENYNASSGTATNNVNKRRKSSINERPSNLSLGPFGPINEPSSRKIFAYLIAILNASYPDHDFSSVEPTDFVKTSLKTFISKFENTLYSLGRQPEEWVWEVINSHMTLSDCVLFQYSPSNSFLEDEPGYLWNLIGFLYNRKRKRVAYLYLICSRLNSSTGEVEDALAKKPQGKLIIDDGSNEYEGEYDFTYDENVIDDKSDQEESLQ
# T5: Maf1-id D248A/D250A (S. cerevisiae, UniProt P41910 1-395, Δ64-194 | D248A | D250A)
# T5 sequence (looked up): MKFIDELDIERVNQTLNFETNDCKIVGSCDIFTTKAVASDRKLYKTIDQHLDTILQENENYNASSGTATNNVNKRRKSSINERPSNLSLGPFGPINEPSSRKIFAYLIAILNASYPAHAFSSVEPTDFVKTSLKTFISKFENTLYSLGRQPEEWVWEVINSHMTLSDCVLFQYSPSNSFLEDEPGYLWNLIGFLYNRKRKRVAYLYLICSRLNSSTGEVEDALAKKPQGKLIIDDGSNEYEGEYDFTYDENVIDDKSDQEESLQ
# B1: Maf1-id (S. cerevisiae Maf1 lacking the internal non-conserved region, Δ64-194) (natural protein, UniProt P41910 1-395, looked up)
# chain: MKFIDELDIERVNQTLNFETNDCKIVGSCDIFTTKAVASDRKLYKTIDQHLDTILQENENYNASSGTATNNVNKRRKSSINERPSNLSLGPFGPINEPSSRKIFAYLIAILNASYPDHDFSSVEPTDFVKTSLKTFISKFENTLYSLGRQPEEWVWEVINSHMTLSDCVLFQYSPSNSFLEDEPGYLWNLIGFLYNRKRKRVAYLYLICSRLNSSTGEVEDALAKKPQGKLIIDDGSNEYEGEYDFTYDENVIDDKSDQEESLQ
# What was measured:
# [1] = target: T1, C160, subunit of S. cerevisiae RNA …; test: cryo-EM structure
# [2] = target: T2, C34, subunit of S. cerevisiae RNA …; test: cryo-EM structure
# [3] = target: B1; test: pull-down
# Maf1-id L318S/W319S = target: T3, Maf1-id L318S/W319S; test: pull-down
# Maf1-id T33E/T34E = target: T4, Maf1-id T33E/T34E; test: pull-down
# Maf1-id D248A/D250A = target: T5, Maf1-id D248A/D250A; test: pull-down
binding result [1],binding result [2],binding result [3],binding result (Maf1-id L318S/W319S),binding result (Maf1-id T33E/T34E),binding result (Maf1-id D248A/D250A),Binder
binds,binds,–,–,–,–,B1
–,–,binds,binds,binds,binds,"His-tagged C34 1-156 (the two N-terminal WH domains of C34) (domain or fragment, S. cerevisiae, UniProt P32910 1-156, looked up) MSGMIENGLQLSDNAKTLHSQMMSKGIGALFTQQELQKQMGIGSLTDLMSIVQELLDKNLIKLVKQNDELKFQGVLESEAQKKATMSAEEALVYSYIEASGREGIWSKTIKARTNLHQHVVLKCLKSLESQRYVKSVKSVKFPTRKIYMLYSLQPS"
